The values below are quoted from earlier work in PMC8745080.

What is called pKa is the pH at which an ionisable group is half protonated.

The target of data set [1] is His98 (UniProt position 99, SEKFSHEQEVK). As to the kind of experiment: not stated (the review mentions pH-dependent NMR measurements on cL-BABP in the same section). The settings on record: apo (ligand-free), folded.
For data set [2], the target named is T1, His98 (UniProt position 99, NFPNYHQTSEI). The data set is described as follows: NMR. Particulars: apo (ligand-free), folded.
For data set [3], the target named is T1, His98. As to the kind of experiment: not stated (NMR inferred from the apo data of the same reference). Particulars: holo (bile-salt-bound; identity of the bound bile salts not given), folded.

Take “Chicken liver bile acid-binding protein (cL-BABP; liver basic fatty acid-binding protein) (Gallus gallus)”: the pKa with His98 [1] is 4.7.
In the case of “Human ileal bile acid-binding protein (hI-BABP; gastrotropin, FABP6), common isoform (Homo sapiens)”, the pKa with His98 [2] is 6.6; with His98 [3], 7.0.
